Measurements as given in publication doi:10.1101/2020.04.10.035014 (bioRxiv, 2020).

B2: C-terminus of INTS3 (INTS3c; residues 560-905 and 915-995, co-expressed) (domain or fragment, human)
chain 1: TVVEEPVDITPYLDQLDESLRDKVLQLQKGSDTEAQCEVMQEIVDQVLEEDFDSEQLSVLASCLQELFKAHFRGEVLPEEITEESLEESVGKPLYLIFRNLCQMQEDNSSFSLLLDLLSELYQKQPKIGYHLLYYLRASKAAAGKMNLYESFAQATQLGDLHTCLMMDMKACQEDDVRLLCHLTPSIYTEFPDETLRSGELLNMIVAVIDSAQLQELVCHVMMGNLVMFRKDSVLNILIQSLDWETFEQYCAWQLFLAHNIPLETIIPILQHLKYKEHPEALSCLLLQLRREKPSEEMVKMVLSRPCHPDDQFTTSILRHWCMKHDELLAEHIKSLLIKNNSLPRK
chain 2: KLAQLTLEQILEHLDNLRLNLTNTKQNFFSQTPILQALQHVQASCDEAHKMKFSDLFSLAEEYEDSSTKPPKSRRKAALSS

Tests used:
[1] = biological target: B2; assay: crystal structure
crystal structure = biological target: the molecule itself; assay: crystal structure
SEC = biological target: the molecule itself; assay: SEC

B1: C-terminus of INTS6 (INTS6c; residues 800-887) (domain or fragment, human, UniProt Q9UL03 800-887, looked up)
chain: MHCRSHEEVNTELKAQIMKEIRKPGRKYERIFTLLKHVQGSLQTRLIFLQNVIKEASRFKKRMLIEQLENFLDEIHRRANQINHINSN
B1: binds [1].

For B2, the “stoichiometry N” value (crystal structure) was 2.

B3: INTS3(1-995) (domain or fragment, human, UniProt Q68E01 1-995, looked up)
chain: MELQKGKGAAAAAAASGAAGGGGGGAGAGAPGGGRLLLSTSLDAKDELEERLERCMSIVTSMTAGVSEREANDALNAYVCKGLPQHEEICLGLFTLILTEPAQAQKCYRDLALVSRDGMNIVLNKINQILMEKYLKLQDTCRTQLVWLVRELVKSGVLGADGVCMTFMKQIAGGGDVTAKNIWLAESVLDILTEQREWVLKSSILIAMAVYTYLRLIVDHHGTAQLQALRQKEVDFCISLLRERFMECLMIGRDLVRLLQNVARIPEFELLWKDIIHNPQALSPQFTGILQLLQSRTSRKFLACRLTPDMETKLLFMTSRVRFGQQKRYQDWFQRQYLSTPDSQSLRCDLIRYICGVVHPSNEVLSSDILPRWAIIGWLLTTCTSNVAASNAKLALFYDWLFFSPDKDSIMNIEPAILVMHHSMKPHPAITATLLDFMCRIIPNFYPPLEGHVRQGVFSSLNHIVEKRVLAHLAPLFDNPKLDKELRAMLREKFPEFCSSPSPPVEVKIEEPVSMEMDNHMSDKDESCYDNAEAAFSDDEEDLNSKGKKREFRFHPIKETVVEEPVDITPYLDQLDESLRDKVLQLQKGSDTEAQCEVMQEIVDQVLEEDFDSEQLSVLASCLQELFKAHFRGEVLPEEITEESLEESVGKPLYLIFRNLCQMQEDNSSFSLLLDLLSELYQKQPKIGYHLLYYLRASKAAAGKMNLYESFAQATQLGDLHTCLMMDMKACQEDDVRLLCHLTPSIYTEFPDETLRSGELLNMIVAVIDSAQLQELVCHVMMGNLVMFRKDSVLNILIQSLDWETFEQYCAWQLFLAHNIPLETIIPILQHLKYKEHPEALSCLLLQLRREKPSEEMVKMVLSRPCHPDDQFTTSILRHWCMKHDELLAEHIKSLLIKNNSLPRKRQSLRSSSSKLAQLTLEQILEHLDNLRLNLTNTKQNFFSQTPILQALQHVQASCDEAHKMKFSDLFSLAEEYEDSSTKPPKSRRKAALSS
In the case of B3, the “stoichiometry N” value (SEC) is reported as 2.
